Assay results reported in patent US20080242594A1, “Methods for Promoting Stem Cell Proliferation and Survival” (priority 2005, published 2008).
Entries after “also recorded” stand apart in the source; their conditions may differ.

What was measured:
[1] = system: STAT3; assay: STAT3 phosphorylation (Ser727, Tyr705) immunoblot in CNS stem cells; type: cell-based, mouse; conditions: for effect on STAT3-Ser727 phosphorylation following Notch activation: Notch ligand treated CNS stem cells
Text: Ligands that activate JAK/STAT signaling promote astrocytic differentiation of CNS stem cells (Johe et al., Genes Dev 10:3129-40, 1996; Raj an et al., J Neurosci 18:3620-9, 1998; Bonni et al., Science 278:477-83, 1997; Song et al., Nat Neurosci 7:229-35, 2004; He et al., Nat Neurosci 8:616-625, 2005). When applying CNTF to CNS stem cells it was noted that low concentrations of CNTF stimulated survival but not expression of astrocyte specific genes. This is consistent with previous observations of Akt phosphorylation downstream of gp130 activation (Taga et al., Annu Rev Immunol 15:797-819, 1997). […] At high concentrations (20 ng/ml) the phosphorylation of Tyr705 can be blocked by an inhibitor of JAK while allowing a CNTF-induced increase in Ser727 phosphorylation (FIG. 2B) (Thompson et al., Bioorg Med Chem Lett 12:1219-23, 2002).
CNTF was used as a positive control; CNTF, induced the phosphorylation on both sites. With both CNTF and Notch activation, phosphorylation peaked at around 30 min. STAT3 phosphorylation on Ser727 following Notch activation was sensitive to the γ-secretase inhibitor DAPT (FIG. 2e). […] In contrast to CNTF, no Tyr705 phosphorylation was detected at any of the doses of Notch receptor ligands.
It was determined that insulin also maintains phosphorylation of serine 727 in STAT3 in foetal neural stem cell cultures.

[2] = system: Notch1; assay: Notch activation (Notch1IC / Notch ICD) immunocytochemical detection; type: cell-based, mouse; conditions: Notch ligands 1 hour
Text: Antibodies were used that specifically bind: Notch1IC (Chemicon, 5352), GFP (Molecular Probes, A11122), Oct3/4 (Santa Cruz, sc-5279), SSEA1 and SSEA4 (Developmental Studies HybridomaBank), Tra-1-60 (Chemicon, MAB4360), Tra-1-81 (Chemicon, MAB4381), human nestin (Chemicon, MAB5326), Sox-1 (Gift from Dr. R Lovell-Badge), TH (Pel-Freez, P40101-0), Tuj1 (Covance, MMS-435P), rat nestin (McKay Lab), GFAP (Dako, z0334), CNPase (Chemicon, MAB326), BrdU (Accurate, H5903), DCX (Santa Cruz, sc-8066), Sox2 (R&D, MAB2018), Hu (Molecular Probes, A21271).
To assay for Notch activation, cultures were treated with the Notch ligands for 1 hour and Notch1 activation was detected by immunocytochemical staining of Notch1IC (FIG. 1b).
It was determined that insulin facilitates Notch cleavage using immunocytochemical detection.

[3] = system: Hes3; assay: Hes3 expression (RT-PCR, immunohistochemistry) in CNS stem cells; type: cell-based, mouse; conditions: for effect on Jagged-induced Hes3 mRNA induction: CNTF at high concentrations (>1 ng/ml)
Protocol: RT-PCR: For reverse-transcriptase PCR analysis, RNA was extracted from cell cultures or brain homogenates with Trizol (Invitrogen, 15596-026), and PCR reactions were performed with the ProSTAR First-Strand RT-PCR Kit (Stratagene, 200420). Primers were used for the following genes: Hes1, Hes2, Hes3, Hes5, Hes6, Hey2; Hes7
Notch signaling regulates transcription of the Hes/Hey gene family, a group of genes implicated in the control of differentiation (Iso et al., J Cell Physiol 194:237-55, 2003). RT-PCR was used to assess mRNA regulation of these genes one hour after Notch activation in CNS stem cells. […] The ability of high concentrations of CNTF to inhibit Hes3 induction following Notch activation was dependent on JAK activity (FIG. 4e). In contrast, in the absence of added Notch ligand, Hes3 mRNA levels were elevated by high CNTF and the JAK inhibitor (FIG. 4e).
Conversely, treatment with ciliary neurotrophic factor (CNTF), a cytokine that opposes the signal transduction pathway downstream of Notch activation opposed the ability of D114 to induce Hes3 transcription. Immunohistochemical experiments were performed that documented D114, CNTF regulate Hes3 expression. Thus, at the protein expression level, D114 maintains and CNTF inhibits Hes3 expression.

[4] = system: E13.5 cortical embryonic mouse CNS stem cells; assay: CNS stem cell plating efficiency / colony formation / survival; type: cell-based; conditions: 5 days, versus FGF2 control; CNTF low 0.01, 0.1 ng/ml or high 20 ng/ml with JAK inhibitor
Protocol: Cell culture: E13.5 cortical embryonic mouse and adult rat subventricular zone CNS stem cells were grown as previously described (Johe et al., Genes Dev 10:3129-40, 1996; Rajan et al., J Neurosci 18:3620-9, 1998). Cells were expanded in serum-free DMEM/F12 medium with N2 supplement with FGF2 (20 ng/ml) for 5 days and were re-plated at 1000-10,000 cells per cm^2. FGF2 was included throughout our experiments, unless otherwise stated.
To explore these paradoxical observations, CNS stem cell cultures from mid-gestation (embryonic day 13.5) mouse dorsal telencephalon were treated with soluble Notch ligands. […] Following initial passaging, the cells were plated at a density of 1000 cells/cm^2, cultured for 5 days in the presence of FGF2, and colony numbers, sizes, and BrdU incorporation (after a 4 hour BrdU pulse) were enumerated. Notch activation by Jagged-1 or Delta-4 (200 ng/ml) increased the number of colonies generated in vitro by over 3-fold (FIG. 1a). […] The effects of Notch activation were most dramatic when treatments were initiated at the start of the culture.
Insulin in the medium is also thought to promote cell survival. […] Seeding cells in the absence of insulin caused the plating efficiency measured at five days to drop to 29.9%±37.9 (FIG. 1e). Delta-4 was able to compensate for the lack of insulin in the medium, and restored plating efficiency (125%±19.4). Because Notch activation improved survival, activation of Akt, a ser/threonine kinase known to be involved in cell survival, was assayed. Notch activation rapidly (5 minutes) promoted the phosphorylation of Akt on Ser473 and […] in both the presence and absence of insulin (FIG. 1f).

[5] = system: nucleostemin, SHH; assay: Nucleostemin and SHH protein expression in CNS stem cells; type: cell-based, mouse
Text: The interest in stem cell self-renewal mechanisms prompted analysis of potential down-stream components of the Notch/STAT3-Ser727 (Notch/sSTAT) pathway. Nucleostemin is a p53-binding protein expressed in self-renewing CNS stem cells and cancer cells (Tsai et al., J Neurosci 20:3725-35, 2000; Tsai et al., J Cell Biol 168:179-84, 2005). Sonic Hedgehog (SHH) is a protein with functions in fate specification and stem cell survival in the fetal and adult CNS (Palma et al., Development 132:335-44, 2005).
There are two forms of mRNA encoded by the Hes3 gene, Hes3a and Hes3b.

Molecule: CN(C)S(=O)(=O)c1ccc2c(c1)/C(=C/c1cc3c([nH]1)CCCC3)C(=O)N2 [SU6656, reference compound]
- effect on STAT3-Ser727 phosphorylation following Notch activation [1]: blocked

Molecule: C[C@H](NC(=O)Cc1cc(F)cc(F)c1)C(=O)N[C@H](C(=O)OC(C)(C)C)c1ccccc1 [DAPT, reference compound]
- accumulation of Notch1IC [2]: blocks the accumulation of Notch1IC
- basal levels of pSer727 [1]: reduced the basal levels of pSer727
- effect on STAT3-Ser727 phosphorylation following Notch activation [1]: blocked
- effect on Jagged-induced Hes3 mRNA induction [3]: inhibited Hes3 induction by Jagged1

Molecule: COc1ccc(S(=O)(=O)Nc2ccccc2CN(C)C/C=C/c2ccc(Cl)cc2)cc1 [KN92, reference compound]
- effect on STAT3-Ser727 phosphorylation following Notch activation [1]: no effect

B1: CNTF: cilliary neurotrophic factor, CNTF (577-NT) from R&D (protein, UniProt P26441 1-200, looked up)
Ciliary neurotrophic factor: MAFTEHSPLTPHRRDLCSRSIWLARKIRSDLTALTESYVKHQGLNKNINLDSADGMPVASTDQWSELTEAERLQENLQAYRTFHVLLARLLEDQQVHFTPTEGDFHQAIHTLLLQVAAFAYQIEELMILLEYKIPRNEADGMPINVGDGGLFEKKLWGLKVLQELSQWTVRSIHDLRFISSHQTGIPARGSHYIANNKKM
- CNS stem cell survival / plating efficiency [4]: increased survival; also recorded: support CNS stem cell survival
- time of peak STAT3 phosphorylation [1]: around 30 min
- concentration at which phosphorylation of STAT3 on Tyr705 occurs ([1]; dose response, 30 minutes): > 1 ng/mL
- concentration inducing phosphorylation of STAT3 on Ser727 ([1]; dose response, 30 minutes): < 0.5 ng/mL
- nucleostemin and SHH protein expression [5]: Nucleostemin levels were also increased
- Hes3 mRNA levels ([3]; CNTF 20 ng/ml): did not induce Hes3 mRNA
- effect on Jagged-induced Hes3 mRNA induction [3]: inhibited Hes3 induction by Jagged1
- Hes3 expression at the protein expression level ([3]; immunohistochemical): inhibits
